In general, Kd refers to the equilibrium constant for the complex coming apart. Read a high Kd as lower affinity.

Two molecules from article PMC10943247 (The EMBO Journal, 2024) can be followed below.

What all share (conditions): both partners purified
Experiment [1] deals with T1, RBX1, as the subunit of CRL2^FEM1B (human, UniProt P62877 1-108).
T1 construct: RING-box protein 1 (RBX1), human; primers RBX1-f/RBX1-r run from the start codon to the stop codon; Seen as a subunit of the complexes m1 and m7 in the cryo-EM structures; source: SF9 insect cells, co-expressed with CUL2, purified; within the reconstituted CRL2^FEM1B complex
The experiment in a line: cryo-EM structure; neddylated CRL2^FEM1B and FNIP1-FLCN mixed 1:1.2, 1 h at 4 °C, GraFix, 1.38 mg/ml.

The target of experiment [2] is T2, CRL2^FEM1B complex with FEM1B^Δ546-553 (FEM1B^DEL), unneddylated (human, UniProt Q13617 1-745; P62877 1-108; Q15370 1-104; Q15369 17-112; Q9UK73 1-627, Δ546-553).
T2 construct: Cullin-2 (CUL2), human; primers from the start codon to the last codon; RING-box protein 1 (RBX1), human; primers from the start codon to the stop codon; Elongin-B (ELOB), human, residues 1-104; Elongin-C (ELOC), human, residues 17-112; Protein fem-1 homolog B (FEM1B), human, with residues 546-553 deleted; also called CRL2FEM1B-DEL; source: CUL2/RBX1 from SF9 insect cells and mutant …
The experiment is described as follows: grating-coupled interferometry; Creoptix WAVE; MBP-BEX2 and FNIP1/FLCN amine-coupled to 4PCP chips; CRL2^FEM1B injected in a 1:3 dilution series from 1 μM in 10 mM HEPES pH 7.5, 150 mM NaCl, 50 μM ZnCl2, 25 °C; 1:1 kinetics model.

Experiment [3] has as its target T3, CRL2^FEM1B complex with FEM1B^F549R, unneddylated (human, UniProt Q13617 1-745; P62877 1-108; Q15370 1-104; Q15369 17-112; Q9UK73 1-627, F549R).
T3 construct: Cullin-2 (CUL2), human; primers from the start codon to the last codon; RING-box protein 1 (RBX1), human; primers from the start codon to the stop codon; Elongin-B (ELOB), human, residues 1-104; Elongin-C (ELOC), human, residues 17-112; Protein fem-1 homolog B (FEM1B), human, F549R; also called CRL2FEM1B-F549R; source: CUL2/RBX1 from SF9 insect cells and mutant FEM1B/ELOB/ELOC from E. coli …
The experiment is described as above.

Experiment [4] addresses T4, CRL2^FEM1B complex with FEM1B^F549S, unneddylated (human, UniProt Q13617 1-745; P62877 1-108; Q15370 1-104; Q15369 17-112; Q9UK73 1-627, F549S).
T4 construct: Cullin-2 (CUL2), human; primers from the start codon to the last codon; RING-box protein 1 (RBX1), human; primers from the start codon to the stop codon; Elongin-B (ELOB), human, residues 1-104; Elongin-C (ELOC), human, residues 17-112; Protein fem-1 homolog B (FEM1B), human, F549S; also called CRL2FEM1B-F549S; source: CUL2/RBX1 from SF9 insect cells and mutant FEM1B/ELOB/ELOC from E. coli …
The description is as above.

Experiment [5] addresses T5, CRL2^FEM1B complex with FEM1B^F549T, unneddylated (human, UniProt Q13617 1-745; P62877 1-108; Q15370 1-104; Q15369 17-112; Q9UK73 1-627, F549T).
T5 construct: Cullin-2 (CUL2), human; primers from the start codon to the last codon; RING-box protein 1 (RBX1), human; primers from the start codon to the stop codon; Elongin-B (ELOB), human, residues 1-104; Elongin-C (ELOC), human, residues 17-112; Protein fem-1 homolog B (FEM1B), human, F549T; also called CRL2FEM1B-F549T; source: CUL2/RBX1 from SF9 insect cells and mutant FEM1B/ELOB/ELOC from E. coli …
The description is as above.

For experiment [6], the target named is T6, CRL2^FEM1B complex with FEM1B^Y275R/L278R, unneddylated (human, UniProt Q13617 1-745; P62877 1-108; Q15370 1-104; Q15369 17-112; Q9UK73 1-627, Y275R | L278R).
T6 construct: Cullin-2 (CUL2), human; primers from the start codon to the last codon; RING-box protein 1 (RBX1), human; primers from the start codon to the stop codon; Elongin-B (ELOB), human, residues 1-104; Elongin-C (ELOC), human, residues 17-112; Protein fem-1 homolog B (FEM1B), human, Y275R/L278R; also called CRL2FEM1B-Y275R/L278R; CRL2FEM1B-Y275RL278R; source: CUL2/RBX1 from SF9 insect cells and mutant …
The description is as above.

T1 sequence (P62877 whole entry): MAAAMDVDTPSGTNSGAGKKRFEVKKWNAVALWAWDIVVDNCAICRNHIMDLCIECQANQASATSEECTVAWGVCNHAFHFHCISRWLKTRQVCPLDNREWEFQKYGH

B1: FNIP1/FLCN complex (complex, human)
chain 1: MAPTLFQKLFSKRTGLGAPGRDARDPDCGFSWPLPEFDPSQIRLIVYQDCERRGRNVLFDSSVKRRNEDISVSKLGSDAQVKVFGKCCQLKPGGDSSSSLDSSVTSSSDIKDQCLKYQGSRCSSDANMLGEMMFGSVAMSYKGSTLKIHQIRSPPQLMLSKVFTARTGSSICGSLNTLQDSLEFINQDNNTLKADNNTVINGLLGNIGLSQFCSPRRAFSEQGPLRLIRSASFFAVHSNPMDMPGRELNEDRDSGIARSASLSSLLITPFPSPNSSLTRSCASSYQRRWRRSQTTSLENGVFPRWSIEESFNLSDESCGPNPGIVRKKKIAIGVIFSLSKDEDENNKFNEFFFSHFPLFESHMNKLKSAIEQAMKMSRRSADASQRSLAYNRIVDALNEFRTTICNLYTMPRIGEPVWLTMMSGTPEKNHLCYRFMKEFTFLMENASKNQFLPALITAVLTNHLAWVPTVMPNGQPPIKIFLEKHSSQSVDMLAKTHPYNPLWAQLGDLYGAIGSPVRLARTVVVGKRQDMVQRLLYFLTYFIRCSELQETHLLENGEDEAIVMPGTVITTTLEKGEIEESEYVLVTMHRNKSSLLFKESEEIRTPNCNCKYCSHPLLGQNVENISQQEREDIQNSSKELLGISDECQMISPSDCQEENAVDVKQYRDKLRTCFDAKLETVVCTGSVPVDKCALSESGLESTEETWQSEKLLDSDSHTGKAMRSTGMVVEKKPPDKIVPASFSCEAAQTKVTFLIGDSMSPDSDTELRSQAVVDQITRHHTKPLKEERGAIDQHQETKQTTKDQSGESDTQNMVSEEPCELPCWNHSDPESMSLFDEYFNDDSIETRTIDDVPFKTSTDSKDHCCMLEFSKILCTKNNKQNNEFCKCIETVPQDSCKTCFPQQDQRDTLSILVPHGDKESSDKKIAVGTEWDIPRNESSDSALGDSESEDTGHDMTRQVSSYYGGEQEDWAEEDEIPFPGSKLIEVSAVQPNIANFGRSLLGGYCSSYVPDFVLQGIGSDERFRQCLMSDLSHAVQHPVLDEPIAEAVCIIADMDKWTVQVASSQRRVTDNKLGKEVLVSSLVSNLLHSTLQLYKHNLSPNFCVMHLEDRLQELYFKSKMLSEYLRGQMRVHVKELGVVLGIESSDLPLLAAVASTHSPYVAQILL
chain 2: MNAIVALCHFCELHGPRTLFCTEVLHAPLPQGDGNEDSPGQGEQAEEEEGGIQMNSRMRAHSPAEGASVESSSPGPKKSDMCEGCRSLAAGHPGYISHDKETSIKYVSHQHPSHPQLFSIVRQACVRSLSCEVCPGREGPIFFGDEQHGFVFSHTFFIKDSLARGFQRWYSIITIMMDRIYLINSWPFLLGKVRGIIDELQGKALKVFEAEQFGCPQRAQRMNTAFTPFLHQRNGNAARSLTSLTSDDNLWACLHTSFAWLLKACGSRLTEKLLEGAPTEDTLVQMEKLADLEEESESWDNSEAEEEEKAPVLPESTEGRELTQGPAESSSLSGCGSWQPRKLPVFKSLRHMRQVLGAPSFRMLAWHVLMGNQVIWKSRDVDLVQSAFEVLRTMLPVGCVRIIPYSSQYEEAYRCNFLGLSPHVQIPPHVLSSEFAVIVEVHAAARSTLHPVGCEDDQSLSKYEFVVTSGSPVAADRVGPTILNKIEAALTNQNLSVDVVDQCLVCLKEEWMNKVKVLFKFTKVDSRPKEDTQKLLSILGASEEDNVKLLKFWMTGLSKTYKSHLMSTVRSPTASESRN
notes: Folliculin (FLCN), human; Calculated mass of the heterodimer printed as 195.8 kDa; also called FNIP1/FLCN heterodimer; source: HEK293F, BacMam baculovirus, purified (Ni-NTA, Strep Trap, TEV, Superose 6); not shown: mCherry, C-terminal, cleaved; His6, C-terminal, cleaved; 2x Strep-tag, C-terminal, cleaved
Take B1: the binding result in experiment [1] is “binds”. Further, the dissociation constant (Kd) in experiment [2] was 4.72 nM; in experiment [3], 8.99 nM; in experiment [4] it was 17.5 nM; in experiment [5], 33.3 nM; in experiment [6], 3.13 nM.

B2: MBP-BEX2 (natural protein)
chain: MESKEERALNNLIVENVNQENDEKDEKEQVANKGEPLALPLNVSEYCVPRGNRRRFRVRQPILQYRWDIMHRLGEPQARMREENMERIGEEVRQLMEKLREKQLSHSLRAVSTDPPHHDHHDEFCLMP
notes: Protein BEX2, human; source: E. coli BL21(DE3), purified (Ni-NTA, Superdex 200); not shown: MBP, N-terminal, kept
For B2, the Kd in experiment [2] was found to be 6.62 nM; in experiment [3], 14 nM; in experiment [4], 23 nM; in experiment [5] it was 109 nM; in experiment [6], 3.99 nM.
